Test results: article PMC8354326

Experiments:
2G12 = assay: ELISA; details: parent: 1.0
PGT145 = assay: ELISA; details: parent: 1.0

| Substance | ratio to parent (2G12) | ratio to parent (PGT145) |
| --- | --- | --- |
| AMC008 SOSIP.v4.2 Env trimer K236T | 0.9 | 1 |
| AMC008 SOSIP.v4.2 Env trimer D620N | 0.9 | 1.5 |
| AMC008 SOSIP.v4.2 Env trimer N637Q | 0.9 | 0.8 |
| AMC008 SOSIP.v4.2 Env trimer K232T | 0.9 | 1 |
| AMC008 SOSIP.v4.2 Env trimer N88Q | 0.8 | 0.8 |
| AMC008 SOSIP.v4.2 Env trimer N624D | 0.8 | 0.9 |
| AMC008 SOSIP.v4.2 Env trimer E662A | 0.9 | 1.1 |
| AMC008 SOSIP.v4.2 Env trimer N616Q | 0.9 | 0.9 |
| AMC008 SOSIP.v4.2 Env trimer K232T; K236T | 0.9 | 0.9 |
| AMC008 SOSIP.v4.2 Env trimer N611Q | 0.8 | 0.8 |
